Measurements: paper PMC5427921 (2017)

B1: PRL2 phosphatase (as used in ITC) (enzyme)
chain: MNRPAPVEISYENMRFLITHNPTNATLNKFTEELKKYGVTTLVRVCDATYDKAPVEKEGIHVLDWPFDDGAPPPNQIVDDWLNLLKTKFREEPGCCVAVHCVAGLGRAPVLVALALIECGMKYEDAVQFIRQKRRGAFNSKQLLYLEKYRPKMRLRFRDTNGHCCVQ
B2: CNNM3 CBS-pair domain as a GST fusion (domain or fragment)
chain: LRCRTVEDVLTPLEDCFMLDASTVLDFGVLASIMQSGHTRIPVYEEERSNIVDMLYLKDLAFVDPEDCTPLSTITRFYNHPLHFVFNDTKLDAVLEEFKRGKSHLAIVQKVNNEGEGDPFYEVLGLVTLEDVIEEIIRSEILDE

Legend:
Test in all cases: ITC
[1] = target: CBS-pair domain of human CNNM3 (GST tag removed) (human, UniProt Q8NE01 309-452)
PRL3 R138E = PRL3 R138E (human, UniProt O75365 1-169, R138E)
PRL3 C104S = PRL3 C104S (human, UniProt O75365 1-169, C104S)
PRL3 L108A = PRL3 L108A (human, UniProt O75365 1-169, L108A)
[2] = target: PRL3 with Arg138 mutated to alanine (human, UniProt O75365 1-169, Arg138 to alanine)
PRL3 D72A = PRL3 D72A (human, UniProt O75365 1-169, D72A)
PRL3 C104A = PRL3 C104A (human, UniProt O75365 1-169, C104A)
PRL3 C49S = PRL3 C49S (human, UniProt O75365 1-169, C49S)
PRL3 C49A = PRL3 C49A (human, UniProt O75365 1-169, C49A)
[3] = target: PRL3 with the catalytic cysteine (Cys104) mutated to glutamic acid (human, UniProt O75365 1-169, Cys104 to glutamic acid)

| Binder | Kd [1] [nM] | Kd (PRL3 R138E) [nM] | Kd (PRL3 C104S) [nM] | Kd (PRL3 L108A) [nM] | Kd [2] [nM] | Kd (PRL3 D72A) [nM] | Kd (PRL3 C104A) [nM] | Kd (PRL3 C49S) [nM] | Kd (PRL3 C49A) [nM] | Kd [3] [nM] |
| --- | --- | --- | --- | --- | --- | --- | --- | --- | --- | --- |
| B1 | 11 |  |  |  |  |  |  |  |  |  |
| B2 |  | 530 | 1400 | 1700 | 320 | 215 | 180 | 105 | 72 | 2800 |
